Results as given in publication PMC3144226, “Conformational Plasticity of proNGF” (PLoS ONE, 2011).

B1: mature murine Nerve Growth Factor (NGF) (natural protein, UniProt P01139 122-241, looked up)
chain: SSTHPVFHMGEFSVCDSVSVWVGDKTTATDIKGKEVTVLAEVNINNSVFRQYFFETKCRASNPVESGCRGIDSKHWNSYCTTTHTFVKALTTDEKQAAWRFIRIDTACVCVLSRKATRRG
notes: mature NGF, murine, the cut product of proNGF25 after the furin site RSKR (118-121 of UniProt P01139); Trp21, Trp76, Trp99. numbers count on: the mature protein; The purified NGF was made by trypsin cleavage, the NGF of the furin experiment by furin cleavage in the tube; also called mature NGF; NGF moiety; source: in the furin experiment released from proNGF25 by furin in the NMR tube

Columns and labels:
[1] = molecular target: recombinant murine proNGF (proNGF25, the short form of the precursor protein) (murine) (UniProt P01139); assay: NMR diffusion (PFG-LED); diffusion compared with model proteins (IscS dimer, DHFR, NusA KH domain); phosphate buffer pH 7, 25°C
[2] = molecular target: the molecule itself; assay: 1D 1H NMR spectrum (linewidths); unlabelled NGF; phosphate buffer pH 7, 25°C

| Molecule | stoichiometry N [1] | binding result [2] |
| --- | --- | --- |
| recombinant murine proNGF (proNGF25, the short form of the precursor protein) (from UniProt P01139 19-241) (natural protein) | 2 | – |
| B1 | – | binds |
